Measurements as given in the supplement of paper PMC10724198.
± gives the standard deviation of the averaged measurements.

Key:
Saccharomyces cerevisiae [1] = assay: protein stability index of tFT-peptide fusion (C-terminal peptide) (PSI (0-1 scale)); higher = more stable (slower turnover); details: genetic background: wild type; temperature: 30 C
Saccharomyces cerevisiae [2] = assay: as above
Method: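 MPS profiling in S. cerevisiae of the tFT-X12 degron library: putative degron peptides plus stable controls, 12 aa, fused to the C-terminus of a sfGFP-mCherry timer. Cells are FACS-sorted into 8 mCherry/sfGFP bins and deep-sequenced. PSI runs from 0 (unstable) to 1 (stable). Backgrounds are wild type, das1Δ and doa10Δ at 30 °C, and wild type, das1Δ, cdc34-1 and cdc53-1 at 37 °C; 2-3 technical replicates each.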

[3] = genetic background: cdc34-1, temperature: 37 C
[4] = genetic background: cdc53-1, temperature: 37 C
[5] = genetic background: das1 deletion, temperature: 30 C
[6] = genetic background: das1 deletion, temperature: 37 C
[7] = genetic background: doa10 deletion, temperature: 30 C
[8] = genetic background: wild type, temperature: 30 C
[9] = genetic background: wild type, temperature: 37 C
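Note: PSI is a weighted mean of sequencing reads over stability bins, variants kept only with over 10 reads, mCherry proximal and sfGFP distal, peptide attached via GGGS linker.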

Sequence: GPRRARLPNFLA
- protein stability index (Saccharomyces cerevisiae [1]): 0.085 ± 0.012
- protein stability index (Saccharomyces cerevisiae [2]; [3]): 0.445 ± 0.013
- protein stability index (Saccharomyces cerevisiae [2]; [4]): 0.684 ± 0.031
- protein stability index (Saccharomyces cerevisiae [2]; [5]): 0.657 ± 0.018
- protein stability index (Saccharomyces cerevisiae [2]; [6]): 0.715 ± 0.018
- protein stability index (Saccharomyces cerevisiae [2]; [7]): 0.0795 ± 0.025
- protein stability index (Saccharomyces cerevisiae [2]; [8]): 0.0947 ± 0.025
- protein stability index (Saccharomyces cerevisiae [2]; [9]): 0.123 ± 0.022

Sequence: GQSRLVADLRQV
- protein stability index (Saccharomyces cerevisiae [1]): 0.7147 ± 0.00089
- protein stability index (Saccharomyces cerevisiae [2]; [3]): 0.635 ± 0.055
- protein stability index (Saccharomyces cerevisiae [2]; [4]): 0.6934 ± 0.0012
- protein stability index (Saccharomyces cerevisiae [2]; [5]): 0.646 ± 0.012
- protein stability index (Saccharomyces cerevisiae [2]; [6]): 0.678 ± 0.018
- protein stability index (Saccharomyces cerevisiae [2]; [7]): 0.676 ± 0.035
- protein stability index (Saccharomyces cerevisiae [2]; [8]): 0.676 ± 0.0081
- protein stability index (Saccharomyces cerevisiae [2]; [9]): 0.675 ± 0.025

Sequence: GRGFVLSVAVVA
- protein stability index (Saccharomyces cerevisiae [1]): 0.435 ± 0.012
- protein stability index (Saccharomyces cerevisiae [2]; [3]): 0.404 ± 0.011
- protein stability index (Saccharomyces cerevisiae [2]; [4]): 0.453 ± 0.031
- protein stability index (Saccharomyces cerevisiae [2]; [5]): 0.395 ± 0.034
- protein stability index (Saccharomyces cerevisiae [2]; [6]): 0.502 ± 0.0094
- protein stability index (Saccharomyces cerevisiae [2]; [7]): 0.363 ± 0.0089
- protein stability index (Saccharomyces cerevisiae [2]; [8]): 0.395 ± 0.021
- protein stability index (Saccharomyces cerevisiae [2]; [9]): 0.467 ± 0.0049

Sequence: GRVCWVVLAGLV
- protein stability index (Saccharomyces cerevisiae [1]): 0.429 ± 0.0095
- protein stability index (Saccharomyces cerevisiae [2]; [3]): 0.593 ± 0.04
- protein stability index (Saccharomyces cerevisiae [2]; [4]): 0.591 ± 0.053
- protein stability index (Saccharomyces cerevisiae [2]; [5]): 0.441 ± 0.026
- protein stability index (Saccharomyces cerevisiae [2]; [6]): 0.6202 ± 0.0013
- protein stability index (Saccharomyces cerevisiae [2]; [7]): 0.307 ± 0.01
- protein stability index (Saccharomyces cerevisiae [2]; [8]): 0.341 ± 0.026
- protein stability index (Saccharomyces cerevisiae [2]; [9]): 0.5394 ± 0.0042

Sequence: GTVRSLLKWRCS
- protein stability index (Saccharomyces cerevisiae [1]): 0.3259 ± 0.00055
- protein stability index (Saccharomyces cerevisiae [2]; [3]): 0.654 ± 0.051
- protein stability index (Saccharomyces cerevisiae [2]; [4]): 0.732 ± 0.0075
- protein stability index (Saccharomyces cerevisiae [2]; [5]): 0.651 ± 0.027
- protein stability index (Saccharomyces cerevisiae [2]; [6]): 0.7431 ± 0.0073
- protein stability index (Saccharomyces cerevisiae [2]; [7]): 0.148 ± 0.016
- protein stability index (Saccharomyces cerevisiae [2]; [8]): 0.192 ± 0.02
- protein stability index (Saccharomyces cerevisiae [2]; [9]): 0.384 ± 0.011

Sequence: GVCLGFICVGFC
- protein stability index (Saccharomyces cerevisiae [1]): 0.444 ± 0.018
- protein stability index (Saccharomyces cerevisiae [2]; [3]): 0.494 ± 0.028
- protein stability index (Saccharomyces cerevisiae [2]; [4]): 0.55 ± 0.0067
- protein stability index (Saccharomyces cerevisiae [2]; [5]): 0.359 ± 0.031
- protein stability index (Saccharomyces cerevisiae [2]; [6]): 0.576 ± 0.032
- protein stability index (Saccharomyces cerevisiae [2]; [7]): 0.343 ± 0.029
- protein stability index (Saccharomyces cerevisiae [2]; [8]): 0.362 ± 0.026
- protein stability index (Saccharomyces cerevisiae [2]; [9]): 0.522 ± 0.0075

Sequence: GVCWCVLFVVGC
- protein stability index (Saccharomyces cerevisiae [1]): 0.359 ± 0.013
- protein stability index (Saccharomyces cerevisiae [2]; [3]): 0.312 ± 0.012
- protein stability index (Saccharomyces cerevisiae [2]; [4]): 0.417 ± 0.059
- protein stability index (Saccharomyces cerevisiae [2]; [5]): 0.271 ± 0.027
- protein stability index (Saccharomyces cerevisiae [2]; [6]): 0.484 ± 0.006
- protein stability index (Saccharomyces cerevisiae [2]; [7]): 0.226 ± 0.012
- protein stability index (Saccharomyces cerevisiae [2]; [8]): 0.259 ± 0.02
- protein stability index (Saccharomyces cerevisiae [2]; [9]): 0.428 ± 0.052

Sequence: GVYFIGISRCVC
- protein stability index (Saccharomyces cerevisiae [1]): 0.307 ± 0.0065
- protein stability index (Saccharomyces cerevisiae [2]; [3]): 0.559 ± 0.006
- protein stability index (Saccharomyces cerevisiae [2]; [4]): 0.642 ± 0.037
- protein stability index (Saccharomyces cerevisiae [2]; [5]): 0.529 ± 0.029
- protein stability index (Saccharomyces cerevisiae [2]; [6]): 0.669 ± 0.0011
- protein stability index (Saccharomyces cerevisiae [2]; [7]): 0.175 ± 0.018
- protein stability index (Saccharomyces cerevisiae [2]; [8]): 0.208 ± 0.025
- protein stability index (Saccharomyces cerevisiae [2]; [9]): 0.36 ± 0.015

Sequence: GVYRLCLLLLVY
- protein stability index (Saccharomyces cerevisiae [1]): 0.218 ± 0.034
- protein stability index (Saccharomyces cerevisiae [2]; [3]): 0.0836 ± 0.015
- protein stability index (Saccharomyces cerevisiae [2]; [4]): 0.107 ± 0.03
- protein stability index (Saccharomyces cerevisiae [2]; [5]): 0.183 ± 0.014
- protein stability index (Saccharomyces cerevisiae [2]; [6]): 0.239 ± 0.021
- protein stability index (Saccharomyces cerevisiae [2]; [7]): 0.158 ± 0.0074
- protein stability index (Saccharomyces cerevisiae [2]; [8]): 0.156 ± 0.026
- protein stability index (Saccharomyces cerevisiae [2]; [9]): 0.237 ± 0.015

Sequence: GWRGVVLVFVLV
- protein stability index (Saccharomyces cerevisiae [1]): 0.36784 ± 0.00027
- protein stability index (Saccharomyces cerevisiae [2]; [3]): 0.302 ± 0.0049
- protein stability index (Saccharomyces cerevisiae [2]; [4]): 0.46 ± 0.059
- protein stability index (Saccharomyces cerevisiae [2]; [5]): 0.28 ± 0.027
- protein stability index (Saccharomyces cerevisiae [2]; [6]): 0.47443 ± 1.3e-05
- protein stability index (Saccharomyces cerevisiae [2]; [7]): 0.251 ± 0.012
- protein stability index (Saccharomyces cerevisiae [2]; [8]): 0.269 ± 0.027
- protein stability index (Saccharomyces cerevisiae [2]; [9]): 0.438 ± 0.015

Sequence: GWSRRFFCLFIV
- protein stability index (Saccharomyces cerevisiae [1]): 0.137 ± 0.002
- protein stability index (Saccharomyces cerevisiae [2]; [3]): 0.203 ± 0.052
- protein stability index (Saccharomyces cerevisiae [2]; [4]): 0.303 ± 0.0019
- protein stability index (Saccharomyces cerevisiae [2]; [5]): 0.345 ± 0.041
- protein stability index (Saccharomyces cerevisiae [2]; [6]): 0.4984 ± 0.0011
- protein stability index (Saccharomyces cerevisiae [2]; [7]): 0.0815 ± 0.015
- protein stability index (Saccharomyces cerevisiae [2]; [8]): 0.0745 ± 0.024
- protein stability index (Saccharomyces cerevisiae [2]; [9]): 0.0793 ± 0.006

Sequence: GWWCGIGVAVSV
- protein stability index (Saccharomyces cerevisiae [1]): 0.464 ± 0.015
- protein stability index (Saccharomyces cerevisiae [2]; [3]): 0.432 ± 0.039
- protein stability index (Saccharomyces cerevisiae [2]; [4]): 0.461 ± 0.039
- protein stability index (Saccharomyces cerevisiae [2]; [5]): 0.337 ± 0.03
- protein stability index (Saccharomyces cerevisiae [2]; [6]): 0.5114 ± 0.0051
- protein stability index (Saccharomyces cerevisiae [2]; [7]): 0.292 ± 0.0069
- protein stability index (Saccharomyces cerevisiae [2]; [8]): 0.339 ± 0.027
- protein stability index (Saccharomyces cerevisiae [2]; [9]): 0.477 ± 0.01

Sequence: HHACLLPVRKAG
- protein stability index (Saccharomyces cerevisiae [1]): 0.277 ± 0.027
- protein stability index (Saccharomyces cerevisiae [2]; [3]): 0.636 ± 0.056
- protein stability index (Saccharomyces cerevisiae [2]; [4]): 0.752 ± 0.012
- protein stability index (Saccharomyces cerevisiae [2]; [5]): 0.6526 ± 0.00091
- protein stability index (Saccharomyces cerevisiae [2]; [6]): 0.744 ± 0.0085
- protein stability index (Saccharomyces cerevisiae [2]; [7]): 0.154 ± 0.007
- protein stability index (Saccharomyces cerevisiae [2]; [8]): 0.187 ± 0.0086
- protein stability index (Saccharomyces cerevisiae [2]; [9]): 0.404 ± 0.024

Sequence: HLAQYSSSLHLM
- protein stability index (Saccharomyces cerevisiae [1]): 0.554 ± 0.085
- protein stability index (Saccharomyces cerevisiae [2]; [3]): 0.657 ± 0.098
- protein stability index (Saccharomyces cerevisiae [2]; [4]): 0.719 ± 0.011
- protein stability index (Saccharomyces cerevisiae [2]; [5]): 0.653 ± 0.0071
- protein stability index (Saccharomyces cerevisiae [2]; [6]): 0.731 ± 0.027
- protein stability index (Saccharomyces cerevisiae [2]; [7]): 0.375 ± 0.022
- protein stability index (Saccharomyces cerevisiae [2]; [8]): 0.424 ± 0.014
- protein stability index (Saccharomyces cerevisiae [2]; [9]): 0.6165 ± 0.0024

Sequence: HPPPPPPPPSLS
- protein stability index (Saccharomyces cerevisiae [1]): 0.513 ± 0.062
- protein stability index (Saccharomyces cerevisiae [2]; [3]): 0.673 ± 0.038
- protein stability index (Saccharomyces cerevisiae [2]; [4]): 0.715 ± 0.0098
- protein stability index (Saccharomyces cerevisiae [2]; [5]): 0.666 ± 0.028
- protein stability index (Saccharomyces cerevisiae [2]; [6]): 0.7362 ± 0.0017
- protein stability index (Saccharomyces cerevisiae [2]; [7]): 0.677 ± 0.029
- protein stability index (Saccharomyces cerevisiae [2]; [8]): 0.67 ± 0.013
- protein stability index (Saccharomyces cerevisiae [2]; [9]): 0.7037 ± 0.002
